From article PMC9106292 (Science Advances, 2022)

Key:
cryo-EM structure = biological target: the molecule itself; test: cryo-EM structure
[1] = biological target: ASC-mCherry (full-length human ASC, TEV protease cleavage site, mCherry, C-terminal hexa-histidine tag) (human, UniProt Q9ULZ3 1-195); test: negative-stain EM
negative-stain EM = biological target: the molecule itself; test: negative-stain EM

Sequence of ASC-mCherry (full-length human ASC, TEV protease cleavage site, mCherry, C-terminal hexa-histidine tag) (Q9ULZ3 whole entry): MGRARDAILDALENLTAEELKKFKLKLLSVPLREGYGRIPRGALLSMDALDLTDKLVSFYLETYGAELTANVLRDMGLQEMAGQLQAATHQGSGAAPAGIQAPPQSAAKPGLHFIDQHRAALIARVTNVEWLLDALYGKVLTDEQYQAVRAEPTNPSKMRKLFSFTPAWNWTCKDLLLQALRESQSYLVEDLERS

| Binder | binding result (cryo-EM structure) | binding result [1] | binding result (negative-stain EM) |
| --- | --- | --- | --- |
| human NLRP3^PYD (residues 3 to 110; C108S) (domain or fragment) MASTRCKLARYLEDLEDVDLKKFKMHLEDYPPQKGCIPLPRGQTEKADHVDLATLMIDFNGEEKAWAMAVWIFAAINRRDLYEKAKRDEPKWGSDNARVSNPTVISQE | binds | binds | – |
| NLRP3^PYD (residues 3 to 110; C108S) CAPS mutant D21H (domain or fragment) MASTRCKLARYLEDLEDVHLKKFKMHLEDYPPQKGCIPLPRGQTEKADHVDLATLMIDFNGEEKAWAMAVWIFAAINRRDLYEKAKRDEPKWGSDNARVSNPTVISQE | – | – | binds |
| NLRP3^PYD (residues 3 to 110; C108S) CAPS mutant A77V (domain or fragment) MASTRCKLARYLEDLEDVDLKKFKMHLEDYPPQKGCIPLPRGQTEKADHVDLATLMIDFNGEEKAWAMAVWIFAVINRRDLYEKAKRDEPKWGSDNARVSNPTVISQE | – | – | binds |
| NLRP3^PYD (residues 3 to 110; C108S) CAPS mutant H51R (domain or fragment) MASTRCKLARYLEDLEDVDLKKFKMHLEDYPPQKGCIPLPRGQTEKADRVDLATLMIDFNGEEKAWAMAVWIFAAINRRDLYEKAKRDEPKWGSDNARVSNPTVISQE | – | – | binds |
